The source of these data is patent US20210070855A1 (NANJING LEGEND BIOTECH, published 2021).

Assay [1] deals with T1, human CD47 on cells (human, UniProt Q08722 19-323).
T1 construct: also called CHO-K1/huCD47; human CD47 over-expressed in CHO-K1 cells
Put plainly: flow cytometry on red blood cells; unit taken from the axis.

Assay [2] has as its target T1, human CD47 on cells. The experiment in a line: flow cytometry on CHO-K1/huCD47 cells; unit taken from the axis.
Experimental: (§1) Binding to cell-expressed human CD47 was evaluated on human CD47 over-expressing CHO cells (GenScript, Cat #M00581). Anti-CD47 antibody dilution series was prepared in FACS buffer. CHO-K1/human CD47 cells were transferred to a 96-well U-bottom plate and anti-CD47 antibody dilution was added. […] The cells were then washed twice with wash buffer. Cells were analyzed for binding by FACSCalibur (BD Bioscience, San Jose, Calif.) and Flowjo software.
Assay [3] deals with T2, cynomolgus monkey CD47 on CHO-K1 cells (cynomolgus monkey, UniProt A0A5F8AK49 19-323 (rhesus entry)).
T2 construct: whole, on cells; also called CHO-K1/cyno CD47; CHO-K1/cynoCD47
Put plainly: flow cytometry on CHO-K1/cynoCD47 cells; unit taken from the axis.
Experimental: (§2) Briefly, binding to cell-expressed cyno CD47 was evaluated on cynomolgus monkey CD47 over-expressing CHO cells. Anti-CD47 antibody dilution series was prepared in FACS buffer. CHO-K1/cynomolgus monkey CD47 cell were transferred to a 96-well U-bottom plate and add CD47 antibody dilution. After 30 minutes incubation at 4° C., cells were washed twice with FACS buffer. […] The cells were washed twice with wash buffer, and then analyzed for binding by using FACSCalibur (BD Bioscience, San Jose, Calif.) and Flowjo software.

The target of a further assay is T3, human CD47-His protein (human, UniProt Q08722 19-139, limits assumed).
T3 construct: It includes the signal peptide and the membrane-spanning region, which a soluble protein would lack; not shown: His tag
The experiment in a line: SPR (Biacore T200), antibody captured, human CD47-His as analyte, 1:1 model.

In assay [4] the target is T1, human CD47 on cells. Put plainly: flow cytometry, blocking of human SIRPα binding to CHO-K1/huCD47 cells; the box on the sheet is labelled EC50; unit taken from the axis.
The target of assay [5] is T1, human CD47 on cells. The experiment in a line: flow cytometry on CHO-K1/huCD47 cells; x axis Log(nM).
Experimental: as §1
Assay [6] has as its target T2, cynomolgus monkey CD47 on CHO-K1 cells. The experiment in a line: flow cytometry on CHO-K1/cyno CD47 cells; unit taken from the axis.
Experimental: as §2
Assay [7] deals with T4, CD47 protein.
T4 construct: also called CD47 (ELISA antigen); not shown: The carrier of the coated recombinant protein (an Fc tag as in CD47-Fc, or a His tag as in CD47-His)
Put plainly: ELISA on CD47 protein; x axis is log10 of mAb (ng/ml), unit taken from the axis.

Assay [8] addresses T1, human CD47 on cells. Put plainly: flow cytometry on CHO-K1/huCD47 cells; x axis Log(nM), unit taken from the axis.
Experimental: as §1
For assay [9], the target named is T1, human CD47 on cells. The experiment in a line: flow cytometry, blocking of human SIRPα binding to CHO-K1/huCD47 cells; the box on the sheet is labelled EC50; unit taken from the axis. The source holds these as a separate data set.
Experimental: (§3) After 30 minutes incubation at 4° C., cells were washed twice with FACS buffer.
In assay [10] the target is T4, CD47 protein. Put plainly: ELISA on CD47 protein; x axis is log10 of mAb (ng/ml).
Assay [11] addresses T1, human CD47 on cells. Put plainly: flow cytometry, blocking of human SIRPα binding to CHO-K1/huCD47 cells.
Experimental: as §3
Assay [12] addresses T2, cynomolgus monkey CD47 on CHO-K1 cells. The experiment in a line: flow cytometry on CHO-K1/cyno CD47 cells.
Experimental: as §2

Like-named read-outs stand apart in the source and are kept apart here.

B1: 108VH4.M4_VL1.M1-hIgG1 (antibody)
heavy: not shown
light: EIVLTQSPATLSLSPGERATLSCRASENVGTYISWYQQKPGQAPRLLIYGASNRYTGIPARFSGSGSGTDFTLTISSLEPEDFAVYYCGESYGHLYTFGGGTKVEIKRTVAAPSVFIFPPSDEQLKSGTASVVCLLNNFYPREAKVQWKVDNALQSGNSQESVTEQDSKDSTYSLSSTLTLSKADYEKHKVYACEVTHQGLSSPVTKSFNRGEC
notes: Humanized 108C10A6, human IgG1 with kappa light chain; also called 108VH4.M4_VL1.M1-hlgG1; 108VH4.M4_VL1.M1-hIgG1-Ka
In the case of B1, the EC50 with human CD47 on cells [1] came out at 2.62 nM. For the same molecule, it took 0.299 nM to reach a half-maximal effect with human CD47 on cells [2] (EC50). Moreover, in assay [3], the concentration giving a half-maximal response (EC50) amounted to 0.262 nM. In the assay with human CD47-His protein, this molecule yielded an equilibrium dissociation constant (Kd) of 1.4 nM, a koff of 0.00043 s⁻¹ and an on-rate constant (kon) of 310000 M⁻¹ s⁻¹. In the assay with human CD47 on cells [4], this molecule registered a half-maximal inhibitory concentration (IC50) of 0.911 nM.

B2: 108VH4.M4_VL1.M1-hIgG2 (antibody)
heavy: EVQLVQSGAEVKKPGSSVKVSCKASGYSFTHHWIHWVRQAPGQGLEWMGMIDASDSETRLSQKFKDRVTITADKSTSTAYMELSSLRSEDTAVYYCARLGRYYFDYWGQGTTVTVSSASTKGPSVFPLAPCSRSTSESTAALGCLVKDYFPEPVTVSWNSGALTSGVHTFPAVLQSSGLYSLSSVVTVPSSNFGTQTYTCNVDHKPSNTKVDKTVERKCCVECPPCPAPPVAGPSVFLFPPKPKDTLMISRTPEVTCVVVDVSHEDPEVQFNWYVDGVEVHNAKTKPREEQFNSTFRVVSVLTVVHQDWLNGKEYKCKVSNKGLPAPIEKTISKTKGQPREPQVYTLPPSREEMTKNQVSLTCLVKGFYPSDIAVEWESNGQPENNYKTTPPMLDSDGSFFLYSKLTVDKSRWQQGNVFSCSVMHEALHNHYTQKSLSLSPGK
light: EIVLTQSPATLSLSPGERATLSCRASENVGTYISWYQQKPGQAPRLLIYGASNRYTGIPARFSGSGSGTDFTLTISSLEPEDFAVYYCGESYGHLYTFGGGTKVEIKRTVAAPSVFIFPPSDEQLKSGTASVVCLLNNFYPREAKVQWKVDNALQSGNSQESVTEQDSKDSTYSLSSTLTLSKADYEKHKVYACEVTHQGLSSPVTKSFNRGEC
notes: Humanized 108C10A6, human IgG2 with kappa light chain; also called 108VH4.M4_VL1.M1-hlgG2; 108VH4.M4_VL1.M1-hIgG2-Ka
On to B2, for which the EC50 with human CD47 on cells [1] stood at 5.51 nM. Further, the half-maximal effective concentration (EC50) in the assay with human CD47 on cells [2] was 1.4 nM. The molecule further came in with a 50% effective concentration (EC50) in assay [3] of 1.31 nM. In the assay with human CD47-His protein, this molecule yielded an equilibrium dissociation constant (Kd) of 1.5 nM, a koff of 0.00044 s⁻¹ and a kon of 290000 M⁻¹ s⁻¹. In the assay with human CD47 on cells [4], this molecule gave a concentration for half-maximal inhibition (IC50) of 1.87 nM.

B3: 108C10F5 (antibody, V domains shown)
VH: QMQLQQSGPQLVRPGASVKISCKTSGYSFTHHWIHWMKQRPGQGLEWIGMIDPSDSETRLSQKFKDKATLTVDASSSTAYMQLNSPTSEDSALYFCARLGRYYFDYWGQGTTLTVSS
VL: NIVMTQSPRSMSMSVGERVTLSCKASENVGTYISWYQQKPDQSPKLLIYGASNRYTGVPDRFTGSGSGTDFTLTISTVQAEDLADYHCGESYGHLYTFGGGTKLEIK
notes: purified murine anti-CD47 hybridoma antibody; separate subclone with its own curves; same VH and VL as 108C10A6; also called 09-108C10F5
Take B3: in the assay with human CD47 on cells [5], the “EC50 (read off the curve)” value was around 5 nM. Further, the EC50 in assay [6] is 2.01 nM; in the assay with CD47 protein [7], 23.4 ng/mL.

B4: 98G5F6 (antibody, V domains shown)
VH: QVQLQQSGPQLVRPGASVKISCKASGYSFTNYWMHWMKQRPGQGLEWIGMIDPSDSETRLNQQFKDKATLTVDKSSSTAYMQLSSPTSEDSAVYYCARLGRYYFDFWGQGTTLTVSS
VL: NIVMTQSPKSMSVSVGERVTLSCRASEIVGTYVSWYQQKPEQSPKLLIYGASNRFTGVPDRFTGSRSATDFSLTISNVQAEDLADYLCGQSYDSPYTFGGGTKLEIK
notes: purified murine anti-CD47 hybridoma antibody; same VH and VL as 98G5F11; also called 05-98G5F6
Take B4: the figures for the half-maximal effective concentration (EC50) in the assay with human CD47 on cells [8] and in the assay with CD47 protein [7] were 3.48 nM and 3.53 ng/mL, respectively. In the assay with human CD47 on cells [9], this molecule returned an IC50 of 6.97 nM.

B5: 98G5F11 (antibody, V domains shown)
VH: QVQLQQSGPQLVRPGASVKISCKASGYSFTNYWMHWMKQRPGQGLEWIGMIDPSDSETRLNQQFKDKATLTVDKSSSTAYMQLSSPTSEDSAVYYCARLGRYYFDFWGQGTTLTVSS
VL: NIVMTQSPKSMSVSVGERVTLSCRASEIVGTYVSWYQQKPEQSPKLLIYGASNRFTGVPDRFTGSRSATDFSLTISNVQAEDLADYLCGQSYDSPYTFGGGTKLEIK
notes: purified murine anti-CD47 hybridoma antibody; same VH and VL as 98G5F6; also called 06-98G5F11
For B5, the “EC50 (read off the curve)” value with human CD47 on cells [5] is around 10 nM; with CD47 protein [10] it was around 9 ng/mL.

B6: 112E5D9 (antibody, V domains shown)
VH: QVQLQQSGPQLVRPGASVKISCKASGYSFTNNWMHWMKQRPGQGLEWIGMIDPSDSETRLNQQFRDKATLTVDKTSSTAYMQLSSPTSEDSAVYYCARLGRYYFDYWGLGTTLTVSS
VL: NIVMTQSPKSMSVSVGERVTMNCRASEIVGTYVSWYQQKPEQSPKLLIYGAFNRYTGVPDRFTGSRSGTDFSLNISNVQAEDLADYLCGQSYDSPYTFGGGTKLEIK
notes: purified murine anti-CD47 hybridoma antibody; same VH and VL as 112E5F2 and 112E5H7; also called 10-112E5D9
As to B6, the EC50 in [6] was determined as 1.45 nM; with human CD47 on cells [8], 3.47 nM; with CD47 protein [7] it was 4.77 ng/mL. Further, in the assay with human CD47 on cells [11], the “IC50 (read off the curve)” value was around 4 nM.

B7: 112E5F2 (antibody, V domains shown)
VH: QVQLQQSGPQLVRPGASVKISCKASGYSFTNNWMHWMKQRPGQGLEWIGMIDPSDSETRLNQQFRDKATLTVDKTSSTAYMQLSSPTSEDSAVYYCARLGRYYFDYWGLGTTLTVSS
VL: NIVMTQSPKSMSVSVGERVTMNCRASEIVGTYVSWYQQKPEQSPKLLIYGAFNRYTGVPDRFTGSRSGTDFSLNISNVQAEDLADYLCGQSYDSPYTFGGGTKLEIK
notes: purified murine anti-CD47 hybridoma antibody; same VH and VL as 112E5D9 and 112E5H7; also called 11-112E5F2
For B7, the concentration giving a half-maximal response (EC50 (read off the curve)) in the assay with CD47 protein [10] was around 2 ng/mL. Further, the EC50 in assay [6] was determined as 1.81 nM; with human CD47 on cells [8], 3.15 nM. In addition, the IC50 with human CD47 on cells [9] turned out to be 2.98 nM.

B8: 112E5H7 (antibody, V domains shown)
VH: QVQLQQSGPQLVRPGASVKISCKASGYSFTNNWMHWMKQRPGQGLEWIGMIDPSDSETRLNQQFRDKATLTVDKTSSTAYMQLSSPTSEDSAVYYCARLGRYYFDYWGLGTTLTVSS
VL: NIVMTQSPKSMSVSVGERVTMNCRASEIVGTYVSWYQQKPEQSPKLLIYGAFNRYTGVPDRFTGSRSGTDFSLNISNVQAEDLADYLCGQSYDSPYTFGGGTKLEIK
notes: purified murine anti-CD47 hybridoma antibody; same VH and VL as 112E5D9 and 112E5F2; also called 12-112E5H7
Take B8: the 50% effective concentration (EC50) stood at 1.53 nM in assay [6] and 9.81 ng/mL in the assay with CD47 protein [7]. Moreover, in the assay with human CD47 on cells [9], the half-maximal inhibitory concentration (IC50) is 3.4 nM.

B9: 55F2C4 (antibody, V domains shown)
VH: QVQLQQSGPQLVRPGASVKISCKASGYSFTNYWMHWMKQRPGQGLEWIGMIDPSDSETRLNQQFKDKATLAVDKSSSTAYMQLSSPTSEDSAVYYCARLGRYYFDYWGQGTTLTVSS
VL: NIVMTQSPKSMYVSVGERVTLICRASEIVGTYVSWYQQKPEQSPKLLIYGASNRYTGVPDRFTGSRSATDFSLTISNVQAEDLADYLCGQSYDSPYTFGGGTKLEIK
notes: also called 01-55F2C4
In the case of B9, the EC50 was 5.75 nM in assay [6], 52.5 nM in the assay with human CD47 on cells [8] and 1.39 ng/mL in the assay with CD47 protein [7]. The “IC50 (read off the curve)” value with human CD47 on cells [11] was around 5 nM.

B10: 98E2E7 (antibody, V domains shown)
VH: QVQLQQSGPQLVRPGASVKISCKASGYSFTNHWMHWMKQRPGQGLEWIGMIDPSDSETRLNQQFKDKATLTVDKSSSTAYMQLSSPTSEDSAVFYCARLGRYYFDYWGQGTTLTVSS
VL: NIVMTQSPKSMSVSVGERVTLSCRASDIVGTYVSWYQQKPEQSPKLLIYGASNRYTGVPDRFTGSRSATDFSLTISNVQAEDLADYLCGQSYDSPYTFGGGTKLEIK
notes: purified murine anti-CD47 hybridoma antibody; same VH and VL as 98E2E12; also called 03-98E2E7
As to B10, the figures for the “EC50 (read off the curve)” value (in [12]; in the assay with human CD47 on cells [5]) were around 3 nM and around 7 nM, respectively. The EC50 with CD47 protein [7] turned out to be 3.78 ng/mL.

B11: 107F11B11 (antibody, V domains shown)
VH: EVQLQQSGAEFVKPGASVKLSCTASGFNIEDTYMHWVKQRPEQGLEWIGMIDPANGKTKYGPRFQDKATVTADTSSNTANLQLSSLTSEDTAVYYCADGIGYYVGAMDYWGQGTSVTVSS
VL: DIQMNQSPSSLSASLGDTITITCHASQNINVWLSWYQQKPGNIPKLLIYKASNLHTGVPSRFSGSGSGTGFTLTISSLQPEDIATYYCQQGHSYPYTFGGGTKLEIK
notes: purified murine anti-CD47 hybridoma antibody; same VH and VL as 107F11C4 and 107F11F10; also called 07-107F11B11
With B11, the “EC50 (read off the curve)” value in assay [12] was around 1 nM; with CD47 protein [10], around 5 ng/mL. Further, the “IC50 (read off the curve)” value with human CD47 on cells [11] is around 2 nM.
